{"source": "paper doi:10.1101/2020.01.10.902072", "about": "(bioRxiv, 2020)", "target": "the molecule itself", "test": "cryo-EM structure"}
{"protein": "rat GluD2 receptor, C-terminally truncated at residue 870 (GluD2Δ870) (receptor, UniProt Q63226 24-870, looked up) DSIIHIGAIFDESAKKDDEVFRTAVGDLNQNEEILQTEKITFSVTFVDGNNPFQAVQEACELMNQGILALVSSIGCTSAGSLQSLADAMHIPHLFIQRSTAGTPRSGCGLTRSNRNDDYTLSVRPPVYLNEVILRVVTEYAWQKFIIFYDSEYDIRGIQEFLDKVSQQGMDVALQKVENNINKMITTLFDTMRIEELNRYRDTLRRAILVMNPATAKSFISEVVETNLVAFDCHWIIINEEINDVDVQELVRRSIGRLTIIRQTFPVPQNISQRCFRGNHRISSTLCDPKDPFAQNMEISNLYIYDTVLLLANAFHKKLEDRKWHSMASLSCIRKNSKPWQGGRSMLETIKKGGVNGLTGDLEFGENGGNPNVHFEILGTNYGEELGRGVRKLGCWNPVTGLNGSLTDKKLENNMRGVVLRVVTVLEEPFVMVSENVLGKPKKYQGFSIDVLDALSNYLGFNYEIYVAPDHKYGSPQEDGTWNGLVGELVFKRADIGISALTITPDRENVVDFTTRYMDYSVGVLLRRAEKTVDMFACLAPFDLSLWACIAGTVLLVGLLVYLLNWLNPPRLQMGSMTSTTLYNSMWFVYGSFVQQGGEVPYTTLATRMMMGAWWLFALIVISSYTANLAAFLTITRIESSIQSLQDLSKQTDIPYGTVLDSAVYQHVRMKGLNPFERDSMYSQMWRMINRSNGSENNVLESQAGIQKVKYGNYAFVWDAAVLEYVAINDPDCSFYTVGNTVADRGYGIALQHGSPYRDVFSQRILELQQSGDMDILKHKWWPKNGQCDLYSSVDAKQKGGALDIKSLAGVFCILAAGIVLSCLIAVLETWWSRRKGSRVPSKEDDK", "values": [{"measurement": "stoichiometry N", "value": 4}]}
